Reference: the DeepSol protein solubility set

Assay: soluble on expression in E. coli; label from the status in PepcDB or PDB records
For “MRILHTADWHLGKTLEGRSRLSEQADVLDELNTIVKDEQIDAIVMAGDAFDTVNPPALAEQLFYESLSALSDRGKRPIVVIAGNHDNPDRLSAASPLTHENGIHLIGYPTTEPIHIEVPSAGELLAVGALAYPSEARLNEVLSDTFDEKLLRDHYDVKIRQAFEHMTSRFRTDAVKIAASHIYVAGGNQTDSDGPIEVGGAYTVAAESLPADAAYVALGHLHRPQTIKRARTLARYSGSPLAYSFSEAGYAKSVTIVDAKPGEEATWQEVLLSSGKPLVKWKAANGLSEVYSWLDEGRDQNAWIDLEIRVADQLSLEEIHRLRKAHPGFIHIRPVFEEQNKDRERIEVKHVSIEDRFKKFYEKQTGGAVPDEEMVRLFLELASGVEEEDAK”, the “soluble on expression in E. coli” value was “not soluble”.
With “MRILKIYENKGVYKVVIGEPFPPIEFPLEQKISSNKSLSELGLTIVQQGNKVIVEKSLDLKEHIIGLGEKAFELDRKRKRYVMYNVDAGAYKKYQDPLYVSIPLFISVKDGVATGYFFNSASKVIFDVGLEEYDKVIVTIPEDSVEFYVIEGPRIEDVLEKYTELTGKPFLPPMWAFGYMISRYSYYPQDKVVELVDIMQKEGFRVAGVFLDIHYMDSYKLFTWHPYRFPEPKKLIDELHKRNVKLITIVDHGIRVDQNYSPFLSGMGKFCEIESGELFVGKMWPGTTVYPDFFREDTREWWAGLISEWLSQGVDGIWLDMNEPTDFSRAIEIRDVLSSLPVQFRDDRLVTTFPDNVVHYLRGKRVKHEKVRNAYPLYEAMATFKGFRTSHRNEIFILSRAGYAGIQRYAFIWTGDNTPSWDDLKLQLQLVLGLSISGVPFVGCDIGGFQGRNFAEIDNSMDLLVKYYALALFFPFYRSHKATDGIDTEPVFLPDYYKEKVKEIVELRYKFLPYIYSLALEASEKGHPVIRPLFYEFQDDDDMYRIEDEYMVGKYLLYAPIVSKEESRLVTLPRGKWYNYWNGEIINGKSVVKSTHELPIYLREGSIIPLEGDELIVYGETSFKRYDNAEITSSSNEIKFSREIYVSKLTITSEKPVSKIIVDDSKEIQVEKTMQNTYVAKINQKIRGKINLE” the “soluble on expression in E. coli” value was “soluble”.
For “MRILSLILWIAAIVLPVHSASAAPVKMTIVLERQYLDGEMSEEKVTETVDSMTEIWKKYRGWQLVTLDDQTIVFRKTINDISPLLKTNGYFGITDDGTLSIFNGKPDRSSEIIQSFFQIDVQKLESRQQEKLKKGIRVLSKERYEQVIEMYRHFAVVQ”, the “soluble on expression in E. coli” value was “not soluble”.
With “MRITHLGHSCILVEAAGQRILVDPGNLSRSWRGLTDLDAILVTHRHPDHVDPEHIGALVDANSGAVVRAEEGACHEIPALDADPVAPGDVLQIGEVRIEAVGGRHAVIHRDLEPIGNVGYLIGEGLGTILYHPGDELDETPRGVDVLACPAHAPWAAMKETVDFARSVGARHGFLIHEGLLNGRGWQLSFDRHQEMVPTTFHDLRNGQPWEVPQDLEHHHHHH” the “soluble on expression in E. coli” value was “not soluble”.
With “MRITLVTDSTSDLPQDLRGRLGVRVVPLYVNLSGAIYRDWEEITPTEIFQKVREGAAFPTTSQPSPEDFARVYREALEEADHVLSLHISGKLSGTVQSAELAAQEFPGRVTVVDTQAASLGVGMMVLRAKELLEEGQSLEAVLAELERLRRDHFVRFSVATLEFLKRGGRIGGAQAFLGTLLNLKPVLTLKEGRVEAAGRARGEKKAREEILKAFRAWAEGRKRIRAYFLYSGDEDAVAALRQEVLASGLPVEEALVNELGAVIASHTGPGTYGFYAYSL” the “soluble on expression in E. coli” value was “soluble”.
For “MRIYLIGFMCSGKSTVGSLLSRSLNIPFYDVDEEVQKREGLSIPQIFEKKGEAYFRKLEFEVLKDLSEKENVVISTGGGLGANEEALNFMKSRGTTVFIDIPFEVFLERCKDSKERPLLKRPLDEIKNLFEERRKIYSKADIKVKGEKPPEEVVKEILLSLEGNALGG”, the “soluble on expression in E. coli” value was “soluble”.
In the case of “MRKLMTATAALCACAVTVSAGAAWADADVQPAGSVPIPDGPAQTWIVADLDSGQVLAGRDQNVAHPPASTIKVLLALVALDELDLNSTVVADVADTQAECNCVGVKPGRSYTARQLLDGLLLVSGNDAANTLAHMLGGQDVTVAKMNAKAATLGATSTHATTPSGLDGPGGSGASTAHDLVVIFRAAMANPVFAQITAEPSAMFPSDNGEQLIVNQDELLQRYPGAIGGKTGYTNAARKTFVGAAARGGRRLVIAMMYGLVKEGGPTYWDQAATLFDWGFALNPQASVGSL”, the “soluble on expression in E. coli” value is reported as “soluble”.
For “MRKPTDTLPVNLQRRRLLCAAGALLLSPLAHAGAQREETLADDVASVMRSSVGSVNPPRLVFDNPKEGERWLSAMSARLARFVPEEEERRRLLVNIQYESSRAGLDTQIVLGLIEVESAFRQYAISGVGARGLMQVMPFWKNYIGKPAHNLFDIRTNLRYGCTILRHYRNLEKGNIVRALARFNGSLGSNKYPNAVLGAWRNRWQWR”, the “soluble on expression in E. coli” value was “not soluble”.
In the case of “MRKSLVALLLLAASGLAQAQVDLREGHPDRYTVVRGDTLWDISGKFLRQPWKWPELWHANPQIQNPHLIYPGDTLSLVYVDGQPRLVLNRGESRGTIKLSPKIRSTPIAEAIPTIPLDKINSFLLANRIVDDEKTFTSAPYIVAGNAERIVSGTGDRIYARGKFADGQPAYGIFRQGKVYIDPKTKEVLGINADDIGGGEVVATEGDVATLALTRTTQEVRLGDRLFPTEERAVNSTFMPGEPSREVKGEIIDVPRGVTQIGQFDVVTLNRGQRDGLAEGNVLAIYKVGETVRDRVTGESVKIPDERAGLLMVFRTYKKLSYALVLMASRPLSVTDRVQNP”, the “soluble on expression in E. coli” value is reported as “not soluble”.
For “MRKSMISFLEKKAKNEKITMVSAYDYHSARILDNSDIDIILVGDSLAMTVLGMQDTLSVTMDEMLIFTKAVSRGAKKSFVLADMPFMSYQSSDRDAILNASRFIKESHANGVKVEGGIEIASKIKLISQSGIPVVAHLGLTPQAVNMLGGYRVQGKDLQSAQKIIDDAKAVQDAGACMLVLECVPVKLAQKISSILEIPTIGIGSGKYCDGQVLVYHDLLGLNKDFKAKFVKHFDKIDPQVGVEKYRDEVKSGIFPSQEHSFDYLDDELLDKLY”, the “soluble on expression in E. coli” value was “not soluble”.
In the case of “MRKTLTALFIAAALPTFAMAAPAANDLPPPPMEGGHMMGQHGPRHGGPMKELDLTREQRQQMGKLMGEQMKARHEITQRYLAKLPAAEQKALKDELKASHEKTQKDIRALLTPEQQKKFDELQKKREQRKAEWAEFQQWKADKKSNLEHHHHHH”, the “soluble on expression in E. coli” value is reported as “soluble”.
For “MRLIIVSGRSGSGKSTALNVLEDNGFYCIDNLPASLLPDLAQRALLHTELLQPQVAVSIDARNLPSQLQRFPELLQEVRDNHINCDVLYLDADDETLLKRFSETRRRHPLTTDTRSLAEAIGDESQLLGPIADLADLKLDTTSLNLYQLRDTIKLRLLNKPEPGTAFLVESFGFKRGMPVDADLVFDVRCLPNPYWKPELRDHSGLEPEVREYLAAQPDVEEMYQDIVGYLNKWLPRFAASNRSYVTVAIGCTGGHHRSVYLAERIGAALRDSLKNVQIRHRDLSS”, the “soluble on expression in E. coli” value was “not soluble”.
In the case of “MRLPDAGFRRYIVVAGRRNVGKSSFMNALVGQNVSIVSEYAGTTTDPVYKSMELYPVGPVTLVDTPGLDDVGELGRLRVEKARRVFYRADCGILVTDSEPTPYEDDVVNLFKEMEIPFVVVVNKIDVLGEKAEELKGLYESRYEAKVLLVSALQKKGFDDIGKTISEILPGDEEIPYLGDLIDGGDLVILVVPIDLGAPKGRLIMPQVHAIREALDREAIALVVKERELRYVMENIGMKPKLVITDSQVVMKVASDVPEDVELTTFSIVESRYRGDLAYFVESVRKIEELEDGDTVVIMEGCTHRPLTEDIGRVKIPRWLVNHTGAQLNFKVIAGKDFPDLEEIEGAKLIIHCGGCVLNRAAMMRRVRMAKRLGIPMTNYGVTISYLHGVLDRAIRPFREEVKVLEHHHHHH”, the “soluble on expression in E. coli” value is reported as “soluble”.
In the case of “MRLPTEAHLRQHVRVIDSMSCNREKVRDLRRQIPSFDCVPGCHDCCGPVTTSSEEMSRLPRKTVAEQEAAFNELNCVHLGPQGCTVYDERPLICRLFGTTASLPCPNGRRPVELIHPRAEKQIHEYMASTRQVLVLEHHHHHH”, the “soluble on expression in E. coli” value is reported as “not soluble”.
For “MRLSMENIMNNPVIGVVMCRNRLKGHATQTLQEKYLNAIIHAGGLPIALPHALAEPSLLEQLLPKLDGIYLPSSPSNVQPHLYGENGDEPDADPGRDLLSMAIINAALERRIPIFAICRGLQELVVATGGSLHRKLCEQPELLEHREDPELPVEQQYAPSHEVQVEEGGLLSALLPECSNFWVNSLHGQGAKVVSPRLRVEARSPDGLVEAVSVINHPFALGVQWHPEWNSSEYALSRILFEGFITAWQHHIAEKQRL”, the “soluble on expression in E. coli” value was “not soluble”.
With “MRLTKQTNYAVRMLMYCAANEGKLSRIPEIARAYGVSELFLFKILQPLNKAGLVETVRGRNGGVRLGKPAEKISLFDVVRVTEDSFAMAECFEDGAVECPLVDSCGLNSALRKALNAFFDVLAEYSIDDLVKARPQINFLLGIDTEMPKIAALPAA” the “soluble on expression in E. coli” value was “not soluble”.
